Consider three molecules from patent US20240301069A1 (GUANGDONG FAPON BIOPHARMA, published 2024).

For assay [1], the target named is T1, human PD-L1 full-length protein on CHO-hPD-L1 stable cells (human, UniProt Q9NZQ7 19-290).
T1 construct: also called membrane protein PD-L1
Put plainly: flow cytometry blocking assay: antibody titrated on CHO-hPD-L1 cells; blocked ligand recombinant human CD80-hFc. (In flow cytometry, cells or beads pass a laser one at a time.)

Assay [2] has as its target T2, human PD-L1 extracellular domain recombinant protein hPD-L1-his (human, UniProt Q9NZQ7 19-238).
T2 construct: extracellular domain; Home-made; also called human PD-L1 recombinant protein; not shown: his label
Description: BLI (ForteBIO QKe), hPD-L1-his captured on an anti-Penta-HIS sensor, antibody in solution. How it is done:
An experimental method included the following.
An equilibration buffer (1×PBS+0.02% Tween20) was used to dilute a home-made human PD-L1 extracellular domain recombinant protein hPD-L1-his carrying a his label, until a final concentration reached 5 μg/mL. […] The whole reaction was undergone at 25° C. and 1000 rpm.

The target of assay [3] is T3, human B7-H3 protein (Acrobiosystem), hB7-H3 hFc (human, UniProt Q5ZPR3-2 29-245, limits assumed).
T3 construct: Bought; not shown: human Fc
T3 sequence (looked up): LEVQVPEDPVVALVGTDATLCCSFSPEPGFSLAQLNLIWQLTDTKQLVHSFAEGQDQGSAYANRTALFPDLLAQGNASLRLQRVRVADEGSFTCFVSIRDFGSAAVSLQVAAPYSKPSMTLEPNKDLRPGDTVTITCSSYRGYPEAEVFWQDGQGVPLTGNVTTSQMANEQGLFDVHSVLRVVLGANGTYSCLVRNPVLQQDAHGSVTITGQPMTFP
Description: ELISA on coated hB7-H3 hFc. How it is done: (§1) Supernatant was discarded; a blocking solution (1×PBS+1% BSA) was added in 200 μL/well; and blocking was performed for 1 h at 37° C. […] Washing was performed for 3 times with the 1×PBS. HRP-labeled goat anti-mouse IgG (sigma A0168-1ML) was added in 100 μL/well; incubation was performed for 30 min at 37° C. in a standing manner; and after washing was performed for 3 times with the 1×PBS, a color reaction was performed.
(In general: An ELISA detects its analyte on a solid surface through an enzyme-linked reagent.)

For assay [4], the target named is macaque PD-L1 on CHO-cynoPD-L1 stable cells (macaque, UniProt Q9NZQ7 19-290 (human entry)). Put plainly: flow cytometry, antibody titration on CHO-cynoPD-L1 cells, MFI-APC.
macaque PD-L1 on CHO-cynoPD-L1 stable cells, sequence (Q9NZQ7 other isoform, or with tags, fused parts or gaps limits assumed): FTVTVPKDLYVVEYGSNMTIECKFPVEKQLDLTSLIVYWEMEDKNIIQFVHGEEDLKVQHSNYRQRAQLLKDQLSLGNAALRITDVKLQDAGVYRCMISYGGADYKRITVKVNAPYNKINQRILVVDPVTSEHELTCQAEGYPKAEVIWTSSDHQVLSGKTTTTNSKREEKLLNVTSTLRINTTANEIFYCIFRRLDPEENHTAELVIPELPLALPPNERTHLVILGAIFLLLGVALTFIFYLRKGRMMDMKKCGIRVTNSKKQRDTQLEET
Assay [5] concerns the target T4, human PD-L2 protein (Acrobiosystem), hPD-L2 hFc (human, UniProt Q9BQ51 20-219, limits assumed).
T4 construct: Bought; also called B7-DC; not shown: human Fc
T4 sequence (looked up): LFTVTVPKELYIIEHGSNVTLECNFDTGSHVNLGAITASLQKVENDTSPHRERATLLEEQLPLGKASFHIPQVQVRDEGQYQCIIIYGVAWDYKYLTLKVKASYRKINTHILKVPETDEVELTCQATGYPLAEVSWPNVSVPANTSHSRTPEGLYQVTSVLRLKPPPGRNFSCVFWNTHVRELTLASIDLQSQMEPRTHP
Put plainly: ELISA on coated hPD-L2 hFc. How it is done:
as §1

Assay [6] addresses T5, recombinant human PD-L1 protein carrying a hFc label (human, UniProt Q9NZQ7 19-238).
T5 construct: Self-produced; also called hPD-L1 hFc; PD-L1-hFc; not shown: human Fc label
Put plainly: flow cytometry blocking assay (method 2): antibody titrated; binding of recombinant human PD-L1-hFc to PD-1 on CHO-hPD-1 cells is blocked. How it is done: The 1×FCM buffer was used to dilute the self-produced recombinant human PD-L1 protein carrying hFc, until the concentration reached 2 μg/mL. The 1×FCM buffer was used to resuspend the CHO-hPD-1 cells to the cell density of 2×10E6/mL, and the cells were evenly spread in the 96-well V base plate in 100 μL/well. […] After 250×g was taken to perform centrifugation for 5 min, supernatant was discarded in a sucking manner; after washing was performed once with the 1×FCM buffer, APC-labeled goat anti-mouse Fc fluorescent secondary antibodies (Biolegend) diluted by the 1×FCM buffer (dilution ratio being 1:500) were added in 100 μL/well; and incubation was performed on ice for 30 min. After 250×g was taken to perform centrifugation for 5 min, supernatant was discarded in a sucking manner. After washing was performed for 2 times with the 1×FCM buffer, the cells were resuspended by adding the 1×PBS in 100 μL/well; and the flow cytometer (Beckman, CytoFLEX) was used for detection.

In assay [7] the target is T6, human CD86 protein (Acrobiosystem), hCD86 hFc (human, UniProt P42081 26-247, limits assumed).
T6 construct: Bought; also called B7-2; not shown: human Fc
T6 sequence (looked up): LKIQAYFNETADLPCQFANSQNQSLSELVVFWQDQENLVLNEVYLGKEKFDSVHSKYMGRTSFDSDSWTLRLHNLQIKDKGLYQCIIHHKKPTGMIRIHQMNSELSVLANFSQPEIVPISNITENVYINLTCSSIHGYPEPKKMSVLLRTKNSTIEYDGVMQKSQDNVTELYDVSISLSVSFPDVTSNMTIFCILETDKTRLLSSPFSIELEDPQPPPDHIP
Put plainly: ELISA on coated hCD86 hFc. How it is done:
as §1

Assay [8] has as its target T7, human CD28 protein (Acrobiosystem), hCD28 hFc (human, UniProt P10747 19-152).
T7 construct: Bought; not shown: human Fc
Put plainly: ELISA on coated hCD28 hFc. How it is done: as §1

For assay [9], the target named is T8, human CTLA-4 protein (Acrobiosystem), hCTLA-4 hFc (human, UniProt P16410 37-162, limits assumed).
T8 construct: Bought; not shown: human Fc
T8 sequence (P16410 37-162 limits assumed): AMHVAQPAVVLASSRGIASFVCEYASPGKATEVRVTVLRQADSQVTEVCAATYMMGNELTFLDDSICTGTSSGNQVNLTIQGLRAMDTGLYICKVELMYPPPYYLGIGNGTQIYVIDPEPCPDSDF
Put plainly: ELISA on coated hCTLA-4 hFc. How it is done: as §1

Assay [10] addresses T1, human PD-L1 full-length protein on …. Put plainly: flow cytometry, antibody titration on CHO-hPD-L1 cells, MFI-APC.
The target in assay [11] is T9, human ICOSLG protein (Acrobiosystem), hICOSLGhFc (human, UniProt O75144 19-258, limits assumed).
T9 construct: Bought; also called B7-H2; not shown: human Fc
T9 sequence (looked up): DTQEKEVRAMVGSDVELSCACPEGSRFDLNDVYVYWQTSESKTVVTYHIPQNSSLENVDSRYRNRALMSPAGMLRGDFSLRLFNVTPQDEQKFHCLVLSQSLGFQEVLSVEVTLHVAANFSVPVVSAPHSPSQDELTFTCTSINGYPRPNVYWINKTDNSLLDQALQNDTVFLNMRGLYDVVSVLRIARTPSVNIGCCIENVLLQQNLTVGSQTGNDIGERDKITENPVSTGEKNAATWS
Description: ELISA on coated hICOSLG hFc. How it is done:
as §1

The target of assay [12] is T1, human PD-L1 full-length protein on …. Description: flow cytometry blocking assay (method 1): antibody titrated on CHO-hPD-L1 cells; blocked ligand recombinant human PD-1-hFc. How it is done:
[…] The 1×FCM buffer was used to resuspend the CHO-hPD-L1 cells to the cell density of 2×10E6/mL, and the cells were evenly spread in the 96-well V base plate in 100 μL/well. […] After 250×g was taken to perform centrifugation for 5 min, supernatant was discarded in a sucking manner. After washing was performed for 2 times with the 1×FCM buffer, the cells were resuspended by adding the 1×PBS in 100 μL/well; and the flow cytometer (Beckman, CytoFLEX) was used for detection.

The target of assay [13] is T10, human PD-L1 on IFNγ-stimulated A375 cells (human, UniProt Q9NZQ7 19-290).
T10 construct: whole, on cells; PD-L1 of the A375 cells themselves; also called PD-L1 membrane protein
T10 sequence (Q9NZQ7 19-290): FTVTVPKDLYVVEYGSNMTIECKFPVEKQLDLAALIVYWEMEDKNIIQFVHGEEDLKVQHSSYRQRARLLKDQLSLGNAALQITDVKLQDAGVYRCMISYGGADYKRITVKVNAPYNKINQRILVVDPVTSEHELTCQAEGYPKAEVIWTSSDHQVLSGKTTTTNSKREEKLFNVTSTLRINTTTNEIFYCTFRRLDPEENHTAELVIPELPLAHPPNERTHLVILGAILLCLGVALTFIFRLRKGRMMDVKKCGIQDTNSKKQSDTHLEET
Put plainly: flow cytometry, antibody titration on human IFNγ-stimulated A375 cells, MFI-APC. How it is done:
An experimental process included the following.
50 ng/mL of the human IFNγ (R&D) was used to stimulate the expression of human PD-L1 on human melanoma cells A375 (Shanghai cell bank) overnight; on the next day, 0.25% pancreatin (Gibco) was used to digest the A375 cells; after washing was performed once with DPBS, live cell density was adjusted to 2E6/mL; and the mixture was added into the 96-well V base plate in 100 μL/well. […] The mixture was added into the cells in 100 μL/well; and incubation was performed on ice for 30 min in a standing manner, then 250×g was taken to perform centrifugation for 5 min, and supernatant was discarded in a sucking manner. After washing was performed for 2 times with the 1×FCM buffer, iFluor™633GAM fluorescent secondary antibodies (ATT bioquest) diluted by the 1×FCM buffer (dilution ratio being 1:400) were added in 100 μL/well; and incubation was performed on ice for 30 min. After 250×g was taken to perform centrifugation for 5 min, supernatant was discarded in a sucking manner. After washing was performed for 2 times with the 1×FCM buffer, the cells were resuspended by adding the 1×PBS in 100 μL/well; and the flow cytometer (Beckman, CytoFLEX) was used for detection.

The target in assay [14] is T4, human PD-L2 protein (Acrobiosystem), …. Put plainly: ELISA on coated hFc fusion protein. How it is done: as §1
The target of assay [15] is T9, human ICOSLG protein (Acrobiosystem), …. Put plainly: ELISA on coated hFc fusion protein. How it is done: as §1

T5 sequence (Q9NZQ7 19-238): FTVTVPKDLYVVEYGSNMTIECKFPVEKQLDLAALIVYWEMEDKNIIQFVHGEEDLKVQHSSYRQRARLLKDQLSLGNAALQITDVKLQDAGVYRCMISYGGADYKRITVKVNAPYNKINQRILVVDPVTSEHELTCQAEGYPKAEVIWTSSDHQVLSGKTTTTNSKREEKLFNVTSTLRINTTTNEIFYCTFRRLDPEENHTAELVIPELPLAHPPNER
T2 sequence (Q9NZQ7 19-238): as above
T1 sequence (Q9NZQ7 19-290 limits assumed): as the sequence (Q9NZQ7 19-290) above

B1: F016-870 (antibody, V domains shown)
VH: EVQLQESGPSLVKPSQTLSLTCSVTGDSITSGYWNWIRKFPGNKLEYMGYISYTGSTYQNPSLKSRISFTRDTSKNQYYLQLSSVTTEDTATYYCARSRAWIRTYFDYWGQGTTLTVSS
VL: EIVLTQSPALMAASPGEKVTITCSVSSSISSSNLHWYQQKSETSPKPWIYGTSNLASGVPVRFSGSGSGTSYSLTISSMEAEDAATYYCQQWSSYPLTFGAGTKLELKR
notes: Mouse hybridoma monoclonal antibody; also called anti-human PD-L1 antibody F016-870
Consider B1, for which the figures for the IC50 in assay [1], in [6] and in assay [12] were 4.91 nM, 1.61 nM and 5.22 nM, respectively. The Kd (commonly a measure of binding affinity in units of concentration) in [2] was 0.0742 nM. In addition, the binding result in assay [3], in [5], in assay [7], in assay [8], in assay [9] and in [11] was “no binding (tested: 10 µg/mL)” throughout. In addition, the EC50 – broadly, the midpoint of the concentration-response curve – in assay [4] is 0.949 nM; in assay [10], 1.1 nM.

B2: F016-193 (antibody, V domains shown)
VH: EVQLQQSGPELVKPGASVKMSCKASGYTFTSYVMHWVKQKPGQGLEWIGYINPHNDGNKYNEKFKGKATLTSDKSSSSAYMELSSLTSEDSAVYYCAKQTMDYWGQGTSVTVSS
VL: DIVLTQSPASLAVSLGQRATLSCRASESVEFYGTTLMQWFQQKPGQPPKLLIYAASNVESGVPARFSGSGSGTDFSLNIHPVEEDDIAMYFCQQSRKVPYTFGGGTKLEIKR
notes: Mouse hybridoma monoclonal antibody; also called anti-human PD-L1 antibody F016-193
Regarding B2, the IC50 (usually the concentration at which inhibition is half-maximal) in [1] was 4.47 nM; in assay [6], 0.993 nM; in assay [12], 4.98 nM. Further, the Kd in [2] came out at 0.0098 nM. The binding result in assay [3], in [7], in assay [8], in assay [9], in [14] and in assay [15] was “no binding (tested: 10 µg/mL)” in each case. The values for the half-maximal effective concentration (EC50) in [13] and in [10] were 0.128 nM and 0.561 nM, respectively.

B3: F016-568 (antibody, V domains shown)
VH: QLQESGPSLVKPSQTLSLTCSVTGDSITSDYWNWIRKFPGNKLEYMGYISYTGSTYYNPSLKSRISITRDTSKNQYYLQLNSVTTEDTATYYCAKQGGWLNAMDYWGQGTSVTVSS
VL: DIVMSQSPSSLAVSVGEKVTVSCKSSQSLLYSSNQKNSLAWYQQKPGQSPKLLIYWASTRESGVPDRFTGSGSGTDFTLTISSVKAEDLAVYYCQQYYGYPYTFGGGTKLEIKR
notes: Mouse hybridoma monoclonal antibody; also called anti-human PD-L1 antibody F016-568
In the case of B3, the Kd in [2] stood at 0.101 nM. Besides, the binding result in assay [3], in [5], in [7], in [8], in assay [9] and in [11] was “no binding (tested: 10 µg/mL)” each time. Further, the EC50 in assay [4] came out at 1.29 nM; in assay [13], 0.175 nM; in [10], 1.25 nM. Further, the IC50 stood at 1.69 nM in [6] and 6.9 nM in [12].
